Measurements reported in patent US20240166755A1 (UNIVERSITY OF SOUTHERN CALIFORNIA, published 2024).

Experiments:
[1] = molecular target: T1, FLAG-CD19-ECD-GGSG-NLuc-AcV5 (human); assay: NLuc assay: CAR-T cells incubated with CD19-GGSG-NLuc-AcV5 supernatant
T1 construct: the entry includes the signal peptide; also called CD19-GGSG-NLuc-AcV5; CD19-GGSG-NLuc fusion protein
T1 chain: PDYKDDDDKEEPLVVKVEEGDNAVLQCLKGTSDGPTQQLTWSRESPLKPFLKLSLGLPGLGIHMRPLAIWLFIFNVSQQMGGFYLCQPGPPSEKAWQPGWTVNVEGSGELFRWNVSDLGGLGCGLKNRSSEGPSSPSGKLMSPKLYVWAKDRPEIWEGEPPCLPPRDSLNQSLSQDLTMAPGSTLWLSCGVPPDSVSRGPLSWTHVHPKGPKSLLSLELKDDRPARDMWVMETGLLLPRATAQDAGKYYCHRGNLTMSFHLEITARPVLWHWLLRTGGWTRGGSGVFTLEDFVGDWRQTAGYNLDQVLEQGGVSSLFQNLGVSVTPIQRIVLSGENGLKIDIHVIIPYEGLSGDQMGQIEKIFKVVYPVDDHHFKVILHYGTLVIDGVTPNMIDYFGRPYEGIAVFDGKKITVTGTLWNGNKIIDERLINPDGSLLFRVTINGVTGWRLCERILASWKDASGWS

[2] = molecular target: T1, FLAG-CD19-ECD-GGSG-NLuc-AcV5; assay: NLuc assay: CAR on Jurkat-NFAT-Luc cells incubated with FLAG-CD19-ECD-GGSG-NLuc-AcV5 supernatant
[3] = molecular target: T2, human MPL (thrombopoietin receptor) (human, UniProt P40238 26-635); assay: NLuc luminescence of scFv-NLuc fusion supernatant bound to washed cells
T2 construct: whole, on cells; also called c-MPL; c-Mpl
T2 sequence (looked up): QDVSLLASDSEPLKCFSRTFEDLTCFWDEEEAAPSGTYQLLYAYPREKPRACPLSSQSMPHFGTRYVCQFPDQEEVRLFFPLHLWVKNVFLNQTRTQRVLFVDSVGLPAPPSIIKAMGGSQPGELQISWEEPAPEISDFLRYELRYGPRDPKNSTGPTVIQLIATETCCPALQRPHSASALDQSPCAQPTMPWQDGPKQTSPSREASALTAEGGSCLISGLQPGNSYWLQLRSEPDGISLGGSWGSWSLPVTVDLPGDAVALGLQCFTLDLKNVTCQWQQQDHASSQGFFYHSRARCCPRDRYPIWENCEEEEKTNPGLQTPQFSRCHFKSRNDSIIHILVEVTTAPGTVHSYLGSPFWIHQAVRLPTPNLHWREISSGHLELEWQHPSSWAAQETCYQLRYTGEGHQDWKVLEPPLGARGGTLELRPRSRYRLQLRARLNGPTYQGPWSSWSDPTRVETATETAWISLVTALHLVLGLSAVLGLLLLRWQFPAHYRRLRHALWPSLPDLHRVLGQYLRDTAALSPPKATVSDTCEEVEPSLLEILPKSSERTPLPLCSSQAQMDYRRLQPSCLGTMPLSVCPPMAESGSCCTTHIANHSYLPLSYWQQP

MPL-ECD-GGSG-Nluc-AcV5 = molecular target: T3, MPL-ECD-GGSG-Nluc-AcV5 (human); assay: NLuc assay: CAR-T cells incubated with MPL-GGSG-NLuc-AcV5 supernatant
T3 construct: the entry includes the native signal peptide; also called MPL-GGSG-NLuc-AcV5; MPL-GGSG-NLuc AcV5
T3 chain: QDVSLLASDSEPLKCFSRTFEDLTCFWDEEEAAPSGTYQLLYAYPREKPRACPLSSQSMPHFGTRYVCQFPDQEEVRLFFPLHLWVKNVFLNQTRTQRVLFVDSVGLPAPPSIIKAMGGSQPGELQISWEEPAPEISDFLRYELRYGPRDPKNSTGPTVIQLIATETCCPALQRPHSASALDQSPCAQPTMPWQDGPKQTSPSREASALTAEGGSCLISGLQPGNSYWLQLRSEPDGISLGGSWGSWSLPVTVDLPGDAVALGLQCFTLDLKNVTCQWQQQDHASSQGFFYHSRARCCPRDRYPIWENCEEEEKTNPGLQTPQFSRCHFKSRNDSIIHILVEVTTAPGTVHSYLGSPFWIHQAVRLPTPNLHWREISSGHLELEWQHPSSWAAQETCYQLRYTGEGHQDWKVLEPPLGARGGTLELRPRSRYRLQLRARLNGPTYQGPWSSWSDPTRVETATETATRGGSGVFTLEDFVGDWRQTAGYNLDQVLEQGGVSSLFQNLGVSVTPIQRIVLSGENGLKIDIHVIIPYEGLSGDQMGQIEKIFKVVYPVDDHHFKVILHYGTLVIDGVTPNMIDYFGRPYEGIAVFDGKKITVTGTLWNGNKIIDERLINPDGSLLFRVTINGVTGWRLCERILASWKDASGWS

B1: CD8SP-175-(vL-vH)-Myc-CD28z-T2A-PAC(031615-Q04) (scFv)
chain: DQIVLTQSPAIMSASPGEKVTISCSASSSVSYMYWYQQKPGSSPKPWIYRTSNLASGVPARFSGSGSGTSYSLTISNMEAEDAAAYYCQQYHSYPTTFGGGTKLEVKGGGGSGGGGSGGGGSEVQLVESGGGLVQPKGSLKLSCAASGFSFNTYAMNWVRQAPGKGLEWIAHIRSKSNNFATYYADSVKDRFSISRDASENILFLQMNNLKTEDTAMYYCVRQGGDFPMDYWGQGTSVTVSSTREQKLISEEDLKIEVMYPPPYLDNEKSNGTIIHVKGKHLCPSPLFPGPSKPFWVLVVVGGVLACYSLLVTVAFIIFWVRSKRSRLLHSDYMNMTPRRPGPTRKHYQPYAPPRDFAAYRSRVKFSRSADAPAYQQGQNQLYNELNLGRREEYDVLDKRRGRDPEMGGKPRRKNPQEGLYNELQKDKMAEAYSEIGMKGERRRGKGHDGLYQGLSTATKDTYDALHMQALPPRSSGSGEGRGSLLTCGDVEENPG
notes: CAR on cells; entry = whole encoded polyprotein incl; CD8 signal peptide and T2A-PAC
B1: no binding [1].

B2: CD8SP-KSHV-4C3-(vL-vH)-Myc-BBz-T2A-PAC(042315-N01) (scFv)
chain: DIVMTQSPSSLTMSVGQKVTMSCKSSHSLLNSRNQKNYLAWFQQKPGQSPKLLVYFASTRESGVPDRFIGSGSGTDFTLTISNVQAEDLADYFCQQHYTTLPTFGGGTKLEIKGGGGSGGGGSGGGGSQIQLVQSGPDLKKPGETVKISCKASGYTFTNTGMNWVKQAPGKGLKWMGWINTYTGEPTYADDFKGRFTFSLETSASTAYLQINNLKNEDTATYFCTRWGYGSSLYYAMDYWGQGTSVTVSSTREQKLISEEDLAKPTTTPAPRPPTPAPTIASQPLSLRPEACRPAAGGAVHTRGLDFACDIYIWAPLAGTCGVLLLSLVITLYCKRGRKKLLYIFKQPFMRPVQTTQEEDGCSCRFPEEEEGGCELRVKFSRSADAPAYQQGQNQLYNELNLGRREEYDVLDKRRGRDPEMGGKPRRKNPQEGLYNELQKDKMAEAYSEIGMKGERRRGKGHDGLYQGLSTATKDTYDALHMQALPPRSSGSGEGRGSLLTCGDVEENPG
notes: also called control CAR 4C3
B2: no binding [2].

B3: CD8SP-AB317-(vL-vH)-Myc-CD28z-T2A-PAC(031615-T04) (scFv)
chain: DIVLTQSPASLAVSLGQSVTISCRASESVEYYGTSLMQWYQQKPGQPPKLLIYGASNVESGVPARFSGSGSGTDFSLNIHPVEEDDIAMYFCQQSRKVPWTFGGGTKLEIKGGGGSGGGGSGGGGSEVKLVESGGGLVKPGGSRKLSCAASGFTFSSYTMSWVRQTPAKRLEWVATISSGSSTIYYADTVKGRFTISRDNAKNTLFLQMTSLRSEDTAMYYCARRWFLDCWGQGTTLTVSSTREQKLISEEDLKIEVMYPPPYLDNEKSNGTIIHVKGKHLCPSPLFPGPSKPFWVLVVVGGVLACYSLLVTVAFIIFWVRSKRSRLLHSDYMNMTPRRPGPTRKHYQPYAPPRDFAAYRSRVKFSRSADAPAYQQGQNQLYNELNLGRREEYDVLDKRRGRDPEMGGKPRRKNPQEGLYNELQKDKMAEAYSEIGMKGERRRGKGHDGLYQGLSTATKDTYDALHMQALPPRSSGSGEGRGSLLTCGDVEENPG
notes: as for B1
B3: no binding [1].

B4: CD8SP-12E10-(vL-vH)-Myc-CD28z-T2A-PAC(031615-S03) (scFv)
chain: DQVQLQQSGPGLVKPSETLSLTCTVSGDSISSYYWSWIRQPPGKGLEWIGYIYYSGSTNYNPSLKSRVTISVDTSKSQFSLKLSSVTAADTAVYYCARGRYFDVWGRGTMVTSSGGGGSGGGGSGGGGSSSYVLTQPPSVSGSPGQSITISCTGTSSDVGGYNYVSWYQQHPGKAPKLMIYEGSKRPSGVSNRFSGSKSGNTASLTISGLQAEDEADYYCSSYTTRSTRVFGGGTKLTVLGAAATREQKLISEEDLKIEVMYPPPYLDNEKSNGTIIHVKGKHLCPSPLFPGPSKPFWVLVVVGGVLACYSLLVTVAFIIFWVRSKRSRLLHSDYMNMTPRRPGPTRKHYQPYAPPRDFAAYRSRVKFSRSADAPAYQQGQNQLYNELNLGRREEYDVLDKRRGRDPEMGGKPRRKNPQEGLYNELQKDKMAEAYSEIGMKGERRRGKGHDGLYQGLSTATKDTYDALHMQALPPRSSGSGEGRGSLLTCGDVEENPG
notes: as for B1
B4: no binding [1].

B5: CD8SP-161-(vL-vH)-GGSG-NLuc-AcV5 (scFv)
scFv: DDIQMTQSSSSFSVSLGDRVTITCMASEDIYIRLAWYQQKPGNAPRLLISAATSLETGVPSRFSGSGSGKDYTLSITSLQTEDVGTYYCQQYWSSPWTFGGGTKLEINGGGGSGGGGSGGGGSDVQLQESGPGLVKPSQSLSLTCTVTGYSITSDYTWNWIRQFPGNKLEWMGYITYSGSTSYNPSLKSRNSITRDTSKNQFFLQLNSVTTEDTATYYCARLGRRYTMDYWGQGTSVTVSSTRGGSGVFTLEDFVGDWRQTAGYNLDQVLEQGGVSSLFQNLGVSVTPIQRIVLSGENGLKIDIHVIIPYEGLSGDQMGQIEKIFKVVYPVDDHHFKVILHYGTLVIDGVTPNMIDYFGRPYEGIAVFDGKKITVTGTLWNGNKIIDERLINPDGSLLFRVTINGVTGWRLCERILASWKDASGWS
notes: the entry includes the CD8 signal peptide
B5: binds [3].

B6: CD8SP-161-(vL-vH)-Myc-CD28z-T2A-PAC(021715-Z07) (scFv)
chain: DDIQMTQSSSSFSVSLGDRVTITCMASEDIYIRLAWYQQKPGNAPRLLISAATSLETGVPSRFSGSGSGKDYTLSITSLQTEDVGTYYCQQYWSSPWTFGGGTKLEINGGGGSGGGGSGGGGSDVQLQESGPGLVKPSQSLSLTCTVTGYSITSDYTWNWIRQFPGNKLEWMGYITYSGSTSYNPSLKSRNSITRDTSKNQFFLQLNSVTTEDTATYYCARLGRRYTMDYWGQGTSVTVSSTREQKLISEEDLKIEVMYPPPYLDNEKSNGTIIHVKGKHLCPSPLFPGPSKPFWVLVVVGGVLACYSLLVTVAFIIFWVRSKRSRLLHSDYMNMTPRRPGPTRKHYQPYAPPRDFAAYRSRVKFSRSADAPAYQQGQNQLYNELNLGRREEYDVLDKRRGRDPEMGGKPRRKNPQEGLYNELQKDKMAEAYSEIGMKGERRRGKGHDGLYQGLSTATKDTYDALHMQALPPRSSGSGEGRGSLLTCGDVEENPG
notes: as for B1
B6: no binding [1].

B7: CD8SP-4C3-(vL-vH)-Myc-CD28z-T2A-Pac(031615-W05) (scFv)
chain: DIVMTQSPSSLTMSVGQKVTMSCKSSHSLLNSRNQKNYLAWFQQKPGQSPKLLVYFASTRESGVPDRFIGSGSGTDFTLTISNVQAEDLADYFCQQHYTTLPTFGGGTKLEIKGGGGSGGGGSGGGGSQIQLVQSGPDLKKPGETVKISCKASGYTFTNTGMNWVKQAPGKGLKWMGWINTYTGEPTYADDFKGRFTFSLETSASTAYLQINNLKNEDTATYFCTRWGYGSSLYYAMDYWGQGTSVTVSSTREQKLISEEDLKIEVMYPPPYLDNEKSNGTIIHVKGKHLCPSPLFPGPSKPFWVLVVVGGVLACYSLLVTVAFIIFWVRSKRSRLLHSDYMNMTPRRPGPTRKHYQPYAPPRDFAAYRSRVKFSRSADAPAYQQGQNQLYNELNLGRREEYDVLDKRRGRDPEMGGKPRRKNPQEGLYNELQKDKMAEAYSEIGMKGERRRGKGHDGLYQGLSTATKDTYDALHMQALPPRSSGSGEGRGSLLTCGDVEENPG
notes: also called control CAR 4C3
B7: no binding (MPL-ECD-GGSG-Nluc-AcV5).
